Values quoted from earlier work in patent publication US6446032B1, “Designing compounds specifically inhibiting ribonucleic acid by binding to the minor groove” (Massachusetts Institute of Technology, priority 1990, dated 2002).

Tested on: normal cells as well as tumor cells
Conditions: binds and cleaves all rRNAs

B1: Alpha-sarcin: cytotoxic protein with potent antisarcoma activity, isolated from a mold, that inactivates ribosomes by cleaving the rRNA (protein, UniProt P00655 28-177, looked up)
Ribonuclease alpha-sarcin: AVTWTCLNDQKNPKTNKYETKRLLYNQNKAESNSHHAPLSDGKTGSSYPHWFTNGYDGDGKLPKGRTPIKFGKSDCDRPPKHSKDGNGKTDHYLLEFPTFPDGHDYKFDSKKPKENPGPARVIYTYPNKVFCGIIAHTKENQGELKLCSH
- toxicity to cells: highly toxic to normal cells as well as tumor cells
